Experimental findings from patent EP4810607A2 are described below.

Experiment [1] addresses human IL-11 (native, secreted by human fibroblasts in culture) (human) (UniProt P20809). Kind of experiment: cell-based or functional assay.
Experiment [2] has as its target mouse IL-11 (endogenous, produced by mouse fibroblasts in culture) (mouse) (UniProt P47873). Description: cell-based or functional assay.
UniProt P47873, sequence (P47873 22-199 limits assumed): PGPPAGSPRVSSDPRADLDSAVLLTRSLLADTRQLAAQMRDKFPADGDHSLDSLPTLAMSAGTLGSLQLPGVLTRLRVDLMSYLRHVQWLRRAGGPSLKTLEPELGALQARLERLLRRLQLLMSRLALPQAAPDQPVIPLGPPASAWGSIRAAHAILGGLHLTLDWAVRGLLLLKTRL

UniProt P20809, sequence (P20809 22-199): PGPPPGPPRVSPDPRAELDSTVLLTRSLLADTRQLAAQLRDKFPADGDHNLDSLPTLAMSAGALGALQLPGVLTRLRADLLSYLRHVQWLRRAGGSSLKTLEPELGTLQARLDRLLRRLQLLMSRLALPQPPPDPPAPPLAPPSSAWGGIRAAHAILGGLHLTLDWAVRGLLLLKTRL

Consider “neutralising anti-human IL-11 monoclonal antibody (Monoclonal Mouse IgG2A; Clone #22626; Catalog No. MAB218; R&D Systems, MN, USA)”, for which, in experiment [1], the percentage of activated fibroblasts normalised to non-stimulated cultures, TGFβ1-stimulated human atrial fibroblasts (fold of non-stimulated) stood at 0.99; the percentage of activated fibroblasts relative to unstimulated cultures, TGFβ1-stimulated human atrial fibroblasts came to 0.89 fold; the percentage of activated fibroblasts, TGFβ1-stimulated human atrial fibroblasts was 28.3%. In experiment [2], this substance showed a percentage of activated fibroblasts normalised to non-stimulated cultures, TGFβ1-stimulated mouse dermal fibroblasts (fold of non-stimulated) of 1.24; a percentage of activated fibroblasts relative to unstimulated cultures, TGFβ1-stimulated mouse atrial fibroblasts of 1.44 fold; a percentage of activated fibroblasts, TGFβ1-stimulated mouse dermal fibroblasts of 39.4%.
